Laboratory results: the DeepSol protein solubility set

test: soluble on expression in E. coli; label from the status in PepcDB or PDB records

| Sequence | soluble on expression in E. coli |
| --- | --- |
| PGRFALVFKDVTDRRRSEEALRESEAMFRSLTEAMPQLVWSARPDGSCDFFNRRWTDCTGASTEMAMGDGWRAFYHPDDQPAIDRLWPKALRTGEHYEIEYRLRHRDGSYRWMLGRGVPVRDEAGGILRWMGTCTDIH | not soluble |
| MAHHHHHHMDSEKNSPLEYQETMNDLGEDIEDMEAQSINHGEAKMSVDIKSGKGDKGGEEVDVADAENVESNADNALYIYSTDSAKNILKENLEDYLKQLDFYKSNPKCKIDPAIYMEGTEEVENYVVKEKILITTYYQYIDMYESSIDVEEDLEREEIVYVEVPKYIIKYNPKVITNYIEKTIEVPSGEEIKRPVYKKLNVPYVVPHVVENETQVVLKKIVQPEIHTSNEEIEVEVQKYVPRLVPVNVYVPRYFGLSAKTTDEVEESVHYADLTQEQTDYLMKELNPHLDDLKKFNEEQLERMNEYIRESAQQAESHDLNPPKPELVSYDLDGSIQTLDYSDFTQFKEICQRELTC | soluble |
| MSLQEGQNRKTSSLSILAIAGVEPYQEKPGEEYMNEAQLSHFKRILEAWRNQLRDEVDRTVTHMQDEAANFPDPVDRAAQEEEFSLELRNRDRERKLIKKIEKTLKKVEDEDFGYCESCGVEIGIRRLEARPTADLCIDCKTLAEIREKQMAGEGGSHHHHHH | soluble |
| MGSDKIHHHHHHQKEGSLKIGKEGAESGFINLRVEIPPGAFGKQKVLKITRLSDEERKLYPDVFVGDLYRVEFADGVDEFALKPIRLKYYFDAKYLRGENYNNLTFAYATEDGGYRIIPGSMIGKDERGYYVEAFTYHLSVFGVVLRSAGFQKHGIRLLREAVNSSGPAVLLVPGEDPTFEGVVKDNNIWETIFPDRTIMTYEYALYEPRSLAYSEMYRSFIEKEGRRSFIDFESDFLSQEILKYSQYEFDILAHGTGGLIVLRMLQRHPEVNNVRKVVLLSTPVQGTNVVNPLYFSSIFYGKDPEVLEDIFGIEWTKLKMLTLHIRNLIDTLGEVVQEILPDSQLVKELGGFSRNDVEIVSICGDTPPYGVDVSGTELERFYPEFVKGRGDGFVSIQSCRVGKVEQLSGNFYDLYSREENVAYIRELLKYEVQVFSGFRSDDYEEYLPSKNPELSEESAQKVVEVKETEGTEFPVLPVNILFENFLERIRSLELSSYLSGALVGKEVYIATESGVFAWDKKVLDKKIEFFKKIEDYASFVGEGDIFIIDNIGIKKYAPFPLVGDISDALITRNAIIYARVVPGGVRYYLFRNGAEKLIATSPGTTVRMKSENGNYLLITDGEVVAIGSDFKEKGRVLSSLFGEKVKIVDASFKDDAFYILLNDGSIAFVSSSRSETKNYGLAVPKKVLNFQGRILVVYDGVILDLSAGKAQRFDRGIIDVFPGNESLFIVFDEKVRVSVEEWWLSKD | not soluble |
| MGSDKIHHHHHHMLPQSFSYKVIRHNMITVAHLINNIVQSGPVIVMRDIIRHMDRDKFHPIVICLRHEEKEDPIVKELRAIDVKCIYLNYSLLSLELQTGRIARKVLSVLRNEKAHILHSHGYHPDLIASHLSRNITSLSTLHNISKDDFTFLKGNLLGSYMNFRYLRSLSKIGHYVAISRAVADYYASHVNKAKERIRIIHNGVDLSFFQIPDEDHQKQLRHRLGLPVSGKIFLVVGRLFSRKDPLIIIRAFKFLLESQKLSGDFYLFFLGDGPLSDACQKEIGDKTHNIRLLGFQKNVHEYMMAADYAITASHSEGFGLNYLEATACGKPVVATDLPPFREICGTGFQDNELFFSVGNQKELEDCILKSLGHTFNPQKVSDIRHHFSAETMSVQYQNYYTELSAPLK | not soluble |
| MRIAILGGGVAGSTLAYLLSRINYEVTIFDINQHYVKPCGDIVPNIYTPPFNWKETFGIRRFSFYIDGEKIYDVEYRHTKWLVIDKWKWINDMRKSSKVIVTHDNNAKEFDYVIDSRGPYPMDREVVYTTRAIIETEEFDDEAILEFNTRYTGFYWIFPSKENEYNIGAGFLEYKNSKELLNYYLRKRFKNFEVKDIRGAPISIGSVKNKKLRIGEARGLVFPLSGEGIRPSAISAEYAFEAIHKEKDLDGFLNEKLSIIEKRIKIQKMLLDLYRYSSLNLRKTFMRIFFKNEVLIDTYLEDKMDLNGIIESLKSVRANGGIIRKFEEQERLEHHHHHH | not soluble |
| MKRAVITGLGIVSSIGNNQQEVLASLQEGRSGITFAQEFKDAGMRSHVWGDVKLQSEPKDLIDRKVLRFMSDASIYAYLAMQEAIADSGLSDSQVSNFRSGLVVGSGGGSPRNQVAGSDAMRTPRGLKGVGPYMVTKAMASGVSACLATPFKIKGVNYSISSACATSAHCIGHALELIQLGKQDIVFAGGGEELCWEMACEFDAMGALSTKYNDTPAKASRTYDQDRDGFVIAGGGGMVVVEELEHALARGAHIYAEIVGYGATSDGADMVAPSGEGAVRCMQMAMAGVDTPIDYMNVHGTSTPVGDVKELGAIREVFGNNTPAISSTKAMTGHSLGAAGVHEAIFSLLMVEHGFIAPSINIDNLDEQAQGMNIITETTQRELTTVMSNSFGFGGTNATLVMRKYQK | not soluble |
| MGSDKIHHHHHHMLQFQPPGFGHKLIHTSLGAMVYYTQTNTPWAFADTEDLPPLLFLHNFGGGASAYEWSKVYPAFASNYHILAPDLIGWGESAHPVRDYKIRDYLSTIAEFIIETCRQPVTVVASSLTAAFAIRLAIVQPNLFKALFLVSPSGFDDFGQGAGRRLPLSVINTPLLDNFIYMLGAENEIAVRNFLQSFLFAKSERVSQEIVDAYLTSAQQPNAKFSALAFLRGDLYFDLSLYIQQLTIPTVMFWGEKAQFTNIKLGQRLANLNQRAIQDFYAIADAGILPHLEIPEVVIGLLQRYLR | not soluble |
| MSLIAKVVVDVAAKQTDRIFEYHIPVELEKDIKVGSRVVVPFGPRKIQGFVVGLSEDSEFKGQLKDLLVVVDEMPPLTPELVTLSADLAENIYSYRIKILQAMLPWVMRANYRKLLVPANAQAEKMQFFQGDPIDLNKITDLKDIKKIRKLLRDGDAKIEYVVENKAKKKKENQYELVLESEEYTKIYNTLRQNAVKQKQLLMDIIENEASYPKNQKDFEKKLGLTASVLNTAVKRGWLKRKEVEVYRDPLSGFKDNKKSAPVKLNDEQQFALNQITAAIDKRKAETFLLEGITGSGKTEVYLHAISKALEQGRNALMLVPEISLTPQMVRQVKSRFGQAVAVLHSALSEGEKYDEWRRIRRGETRVVVGARSAVFAPLDNIGLIVIDEEHESSYKQETDPRYNARDVAIWRSKYHHCPLVLGSATPSLGSRARAQKNVYKLLRLTKRANNKKLPKVNLIDLKHVQFAGGQFDLSVNLVDAIKKRLDNKEQVILMLNRRGFANFMLCRECGFVLKCPNCDVSLNLHKDTNSMQCHYCGHTERVPSRCPNCQSSKIRFLGTGTQKVQEELEELLPGARILRMDVDTTRKKGSYKRILDSFGNHEADILLGTQMIAKGLDFPNVTLVGVINADTGLWLSDYNASEKTFELLTQVAGRAGRANKEGEVLIQTYNPEHYAIQLAQTQNYERFYGYEMNVRHAGNYPPYFFTVLISIAAKKEQNAAREAFRIKRYLSQHLHEEMIILGPTPSAISRVKNQYYYQILVKYKKEPNIKELLHHIQDSAQEAKKYGLNVFIDNEPEKIMEGHHHHHH | soluble |
| MGSDKIHHHHHHMKKLLAIGILCIMVTAVMSGCVSEKEININNSNKITTNMPVSEKNITKILKYAKNMNLIYYDENGNIVNPYNGDKWKYKVFIDATGQKFLLKNKDDPVPSWAKEKLGDNFKVINVPLTRVIVMSSTEIALMEAINDDGSVIGSVKGIMWGKSYKWYFKDINKSLAEGKIIDVGSSSNPNWDKIIEINPQVIFVYPGYDGDKIIAKCKELGITYVADAEYLENDPLGRCEWVKMFAAFYNKEPEAKRYFEKVEDNCLKVINKTKNCPKVTVAWGYNSQWGCYVPENNSYVAKEIMFYCNGDYIFKDLNGTGSAKINYETFAERAKDADVWVVPSSTAWLSTFKEDNPGYETFKAVKNGRVFCESDDYWQLGLLKTDEVIMDLATILHPEAFKGRKTHFFLKYNIENNTATPFIAK | not soluble |
| MGSDKIHHHHHHMLTGVEVRHFKSWRASEWIACAPITMFFGSNSSGKTSLLQLLLLLKQTTESSDRQQVLNLGDTHSPVDAGTFPDLLHRHEQTQSLFWRIAWQLPPDLTIALPGRKNGDHLPARELAFQARIGWHQHSDSTPNLQAQASHGRAVVEEMAYQLAGYTLGMRLRDRVKQEYELYSDPAGLFSRPSRKSPRLPSPVKCYGFPDEVQKYYKHVSFLTDLEFALEQLCRRMTYLGPLREYPRRQYTWSGTPPTGVGYRGERVIEALLASRLSSDVASGTDSDQPSALETRVAEWLKTMELIADFAVRAVAPGASLFQVWVRRAQQAPEVLMTDVGFGISQMLPVITLCYYVPKGSIVILEHPEIHLHPRAQADLADVLIDAVKTRGVQIIVESHSEHLLRRLQRRIAEDVLPSDQAALYVCTTDAEGVSHIQRLHLDPYGNITNWPKDFFGDEMGDLLAMSEAAMKRQLGQV | not soluble |
| TPTEGLTIGDKAPTFTICGEKQLIDLKDLRGKYVLLSFWASYDALSRMQNATLNHAVAQADNVEMVSVSFDEYKSIFNETIKKDQISTSNCFVELAGVSSDLYQTYRLKRGFKNFLLDENGVIVAKDVTVSELSS | not soluble |
| MEKKTANDVVTLARAQDRLTTLEYIEAIFEDFLEFHGDRYFADDLAVVGGVATLQGKPVTVVGIQKGRNLPENIERNFGSPNPEGYRKALRLMKQAEKFNRPVITFVNTAGAYCGIGAEERGEGEAIAQNLLEMSDLKVPIISVIIGEGGSGGALALAVADEVWMLEHTIYAVLSPEGFASILWKDGSRAKEAAELMKITATELKELAIVDKVIPEVMNGQPLEQAKINRMLQKAFISKLTELAKLDTETLLEKRYQRFRKY | not soluble |
| MGSDKIHHHHHHMQITLNIEHIRADTPLPPLFRVRQRWQTSPIADVAAVVYAELDKIGLAGHIQPGMRIAVTAGSRGISNIVTITAAAVAWLRAHGAEPFIVPAMGSHGGATAEGQVALLASLGITEQSVGCPIRATMDVVELGRIADGTPVYMDRFAAEADGVLVINRIKTHTSFKAPIESGLAKMCAVGLGKRQGAEIVHRTAVYGLKEQLVPMARMVVERGRVLAGLAILEDARDQTAAIVALPPAEIGGAGEAELLLRSKEMMARLPFDRLDVLVVDRIGKNISGTGMDTNVIGRLPIPGEPPPDRPVINVIVVLDLTPETHGNANGIGLADITTARLAAKIDFHATYVNVLTAGLVGLCKGGLPITLPTERDAVAMAIKTCGQPDLAAVRLVRIPDTLHLEELLVSEALLPEVTAHPNLELLGPAEWVLDCVEG | not soluble |
| QFWDLNAKLVDIPTKMRVERWAFNFSELIRDPKGRQSFQHFLRKEFSGENLGFWEACEDLKYGDQSKVKEKAEEIYKLFLAPGARRWINIDGKTMDITVKGLKHPHRYVLDAAQTHIYMLMKKDSYARYLKSPIYKEMLAKAIEPQG | soluble |
| MADIDNKEQSELDQDLEDVEEVEEEETGEETKIKARQLTVQMMQNPQILAALQERLDGLVDTPTGYIESLPKVVKRRVNALKNLQVKCAQIEAKFYEEVHDLERKYAVLYQPLFDKRFEIINAIYEPTEEECEWKPDEEDEVSEELKEKAKIEDEKKDEEKEDPKGIPEFWLTVFKNVDLLSDMVQEHDEPILKHLKDIKVKFSDAGQPMSFVLEFHFEPNDYFTNEVLTKTYRMRSEPDDSDPFSFDGPEIMGCTGCQIDWKKGKNVTLKTIKKKQKHKGRGTVRTVTKTVSNDSFFNFFAPPEVPENGDLDDDAEAILAADFEIGHFLRERIIPRSVLYFTGEAIEDDDDDYDEEGEEADEGYQLFEEVKSCSKLFQRWLQ | soluble |
